Laboratory results published in the Immune Epitope Database (IEDB).

Tests used:
Test in all cases: IEDB peptide-MHC binding, purified MHC/competitive/radioactivity; filed as Kd, often an IC50 or EC50 that approximates it; ≥ and ≤ were set here for values at or beyond the usual limits of such assays
HLA-A*02:02 = target: HLA-A*02:02
HLA-A*02:03 = target: HLA-A*02:03
HLA-A*02:06 = target: HLA-A*02:06
[1] = source organism: Vaccinia virus WR
[2] = source organism: SARS coronavirus Tor2
[3] = source organism: Dengue virus 1 Brazil/97-11/1997
[4] = source organism: Dengue virus 2 Jamaica/1409/1983
[5] = source organism: Dengue virus 4 Philippines/H241/1956
[6] = source organism: Lymphocytic choriomeningitis virus (strain Armstrong)
[7] = source organism: Dengue virus 3 Martinique/1243/1999

Sequence | Kd (HLA-A*02:02; [1]) | Kd (HLA-A*02:03; [1]) | Kd (HLA-A*02:06; [1]) | further results
AAITLVVISV | 501 nM | 246 nM | 26.8 nM | –
ALAEHISDSI | 0.198 nM | 0.34 nM | 163 nM | –
ALKAYFTAKI | 194 nM | 77 nM | 2780 nM | –
ALLFLMSFTI | – | – | – | Kd (HLA-A*02:02; [2]): 0.365 nM; Kd (HLA-A*02:03; [2]): 199 nM; Kd (HLA-A*02:06; [2]): 14.4 nM
CAVIPFDDI | 15800 nM | ≥ 10000 nM | 1160 nM | –
CIVAAVIIM | 14300 nM | 1420 nM | ≥ 32600 nM | –
CTNDIYCDEI | 2460 nM | 5720 nM | 4760 nM | –
DAKRNSKSL | 13700 nM | ≥ 49700 nM | ≥ 77100 nM | –
DAMIHKTYI | 5420 nM | 1520 nM | 9570 nM | –
DTIAHINTL | 747 nM | 233 nM | 11200 nM | –
DVEKEKFVAT | ≥ 37500 nM | ≥ 54800 nM | ≥ 69200 nM | –
DVSLSAYII | 691 nM | 755 nM | 4380 nM | –
EIVSHLRAST | 5150 nM | 2810 nM | 12600 nM | –
ELSRLRYNL | 0.93 nM | 254 nM | 18600 nM | –
ELTSNCTRTT | 14600 nM | 1470 nM | 5720 nM | –
ELWARISSSL | 175 nM | 324 nM | 9290 nM | –
EMKYALINLV | 1260 nM | 283 nM | 9830 nM | –
FIPIIYSKA | 0.555 nM | 1.81 nM | 94.6 nM | –
FLFLAWIMLL | – | – | – | Kd (HLA-A*02:02; [2]): 18.6 nM; Kd (HLA-A*02:03; [2]): 55.7 nM; Kd (HLA-A*02:06; [2]): 1010 nM
FLLNKEMYL | – | – | – | Kd (HLA-A*02:02; [2]): 0.329 nM; Kd (HLA-A*02:03; [2]): 1.13 nM; Kd (HLA-A*02:06; [2]): 1.6 nM

Sequence | Kd (HLA-A*02:02; [1]) | Kd (HLA-A*02:03; [1]) | Kd (HLA-A*02:06; [1]) | further results
FLTSLLILV | – | – | – | Kd (HLA-A*02:02; [2]): 2.17 nM; Kd (HLA-A*02:03; [2]): 12 nM; Kd (HLA-A*02:06; [2]): 3.31 nM
FQDGVFHTM | – | – | – | Kd (HLA-A*02:06; [3]): 13.8 nM
FVLALYSPPL | 2.19 nM | 38.4 nM | 212 nM | –
GLFGKGSLI | – | – | – | Kd (HLA-A*02:03; source organism: Dengue virus 1 Nauru/West Pac/1974): 13 nM
GLFKTNTGTI | – | – | – | Kd (HLA-A*02:03; [4]): 45.8 nM
GLILFVLAL | 129 nM | 452 nM | 7800 nM | –
GLSSRATWA | – | – | – | Kd (HLA-A*02:03; [5]): 36.9 nM
GMVTLYLGV | – | – | – | Kd (HLA-A*02:03; [3]): 12.4 nM
HNASDFYGL | – | – | – | Kd (HLA-A*02:02; [6]): 6510 nM; Kd (HLA-A*02:03; [6]): ≥ 78100 nM; Kd (HLA-A*02:06; [6]): ≥ 21700 nM
IAMLKSKNI | ≥ 37700 nM | 846 nM | 10600 nM | –
IAVSVYGAIT | 7890 nM | 9240 nM | 14400 nM | –
ILSLETVKM | 4.77 nM | 11.8 nM | 280 nM | –
IMAFILGII | 17 nM | 29.8 nM | 175 nM | –
IMKDGRVLVV | – | – | – | Kd (HLA-A*02:03; source organism: Dengue virus 2 16681-PDK53): 6.09 nM
ITMTTVYHI | – | – | – | Kd (HLA-A*02:02; [2]): 19.2 nM; Kd (HLA-A*02:03; [2]): 7.21 nM; Kd (HLA-A*02:06; [2]): 2.31 nM
IVNCLSLSNL | 338 nM | 128 nM | 1280 nM | –
IVPEFAKQYV | 10.3 nM | 18.3 nM | 15 nM | –
KLFKRERDAI | 92.5 nM | 120 nM | 14200 nM | –
KLYGYASLT | 75.8 nM | 21.5 nM | 1990 nM | –
KQIANELNYI | – | – | – | Kd (HLA-A*02:06; [7]): 32.5 nM

Sequence | Kd (HLA-A*02:02; [1]) | Kd (HLA-A*02:03; [1]) | Kd (HLA-A*02:06; [1]) | further results
KTLTGEIGAV | – | – | – | Kd (HLA-A*02:06; [5]): 30.7 nM
LAISAVYFKA | 1430 nM | 363 nM | 659 nM | –
LLLSICLGSL | – | – | – | Kd (HLA-A*02:02; [2]): 20.1 nM; Kd (HLA-A*02:03; [2]): 104 nM; Kd (HLA-A*02:06; [2]): 258 nM
LLMLVTPSMT | – | – | – | Kd (HLA-A*02:03; [7]): 169 nM
LQDIVNEHDI | 7630 nM | ≥ 38200 nM | 10900 nM | –
LQWDDNIPEL | 180 nM | 712 nM | 34.4 nM | –
LQWIASAIV | – | – | – | Kd (HLA-A*02:06; [7]): 3.72 nM
LTHFNNNENV | 907 nM | 7270 nM | 996 nM | –
MAAAKTPVI | 259 nM | 209 nM | 672 nM | –
MAILCVPNAV | – | – | – | Kd (HLA-A*02:06; [4]): 5.35 nM
MTSTRTIILV | 1980 nM | 920 nM | 217 nM | –
MVTDKTAYI | 16.8 nM | 1.99 nM | 25.2 nM | –
NASKTINAL | 117 nM | 708 nM | 6100 nM | –
NISFKSINKV | ≥ 20300 nM | 1530 nM | 11700 nM | –
NLERETGLSA | 17600 nM | 1660 nM | 15100 nM | –
NVISKIYTL | 147 nM | 96.7 nM | 1.75 nM | –
NVTGFMEEEI | 10300 nM | 5140 nM | 17700 nM | –
PLNEGIMAI | – | – | – | Kd (HLA-A*02:03; [3]): 63.8 nM
